Reference: publication PMC8599861 (2021)

Legend:
[1] = target: T1, Depupylase Dop from Corynebacterium glutamicum, wild type (Corynebacterium glutamicum); assay: ITC
T1 chain: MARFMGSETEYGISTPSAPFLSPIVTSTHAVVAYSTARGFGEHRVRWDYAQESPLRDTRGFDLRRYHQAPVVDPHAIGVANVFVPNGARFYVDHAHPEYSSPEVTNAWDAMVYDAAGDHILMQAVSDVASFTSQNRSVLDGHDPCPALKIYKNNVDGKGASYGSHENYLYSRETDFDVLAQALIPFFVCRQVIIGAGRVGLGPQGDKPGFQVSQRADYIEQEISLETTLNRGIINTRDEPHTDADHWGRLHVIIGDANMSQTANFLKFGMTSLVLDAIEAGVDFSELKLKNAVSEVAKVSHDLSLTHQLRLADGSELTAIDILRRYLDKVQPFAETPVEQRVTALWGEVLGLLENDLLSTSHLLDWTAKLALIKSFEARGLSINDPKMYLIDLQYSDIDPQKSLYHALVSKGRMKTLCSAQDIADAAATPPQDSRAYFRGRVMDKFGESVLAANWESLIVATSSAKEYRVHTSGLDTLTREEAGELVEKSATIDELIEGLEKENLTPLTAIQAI

[2] = target: CgluDopGS, Dop-loop variant of Dop from Corynebacterium glutamicum (Dop-loop H43-I77 replaced with (GS)4) (Corynebacterium glutamicum); assay: ITC

B1: Prokaryotic ubiquitin-like protein Pup from Corynebacterium glutamicum with C-terminal glutamate (natural protein)
chain: MNAKQTQIMGGGGRDEDNAEDSAQASGQVQINTEGVDSLLDEIDGLLENNAEEFVRSYVQKGGE
Kd [1]: 186 nM | Kd [2]: 76 nM
